The test has as its target SARS-CoV-2 S receptor-binding domain (RBD) (SARS-CoV-2 (isolate Wuhan-Hu-1)) (UniProt P0DTC2). As to the kind of experiment: SPR. In general terms: SPR reads the build-up and loss of mass on a sensor chip optically.

The results in this text go back to publication PMC9461283.

What is called Kd is the constant that tells how readily two partners part at equilibrium. High values mean a looser complex, low ones a tighter complex.

“cynomolgus macaque (Macaca fascicularis) ACE2 ectodomain (ectoACE2), N-terminal 367 aa (domain or fragment)” showed a Kd of 69.2 nM. In the case of “rhesus macaca (Macaca mulatta) ACE2 ectodomain (ectoACE2), N-terminal 367 aa (from UniProt F7AH40 1-367) (domain or fragment)” it was 68 nM.
